# B1: dOVA standard: heat-denatured chicken ovalbumin (protein)
# chain: GSIGAASMEFCFDVFKELKVHHANENIFYCPIAIMSALAMVYLGAKDSTRTQINKVVRFDKLPGFGDSIEAQCGTSVNVHSSLRDILNQITKPNDVYSFSLASRLYAEERYPILPEYLQCVKELYRGGLEPINFQTAADQARELINSWVESQTNGIIRNVLQPSSVDSQTAMVLVNAIVFKGLWEKAFKDEDTQAMPFRVTEQESKPVQMMYQIGLFRVASMASEKMKILELPFASGTMSMLVLLPDEVSGLEQLESIINFEKLTEWTSSNVMEERKIKVYLPRMKMEEKYNLTSVLMAMGITDVFSSSANLSGISSAESLKISQAVHAAHAEINEAGREVVGSAEAGVDAASVSEEFRADHPFLFCIKHIATNAVLFFGRCVSP
# Biological target: T1, human BiP (Homo sapiens, UniProt P11021)
# T1 construct: The human BiP gene except the signal peptide encoding region was obtained from Geneart (Germany); linker […]; made in house; host or cells: HEK 293E cells, transient transfection, PABC674 vector; secreted into the medium
# Assay: ELISA: binding of BiP-FLAG-His to immobilized (misfolded) protein ligands
# Settings: ligands coated at 5 μg/ml; 6BB peptides and oxLDL 50 μg/ml
# Experimental: Enzyme Linked Immunosorbent Assay for Testing of Chaperone Binding to Misfolded Proteins
# Binding of chaperones to immobilized (misfolded) protein ligands was determined using an enzyme linked immuno sorbent assay (ELISA) approach. For this purpose 50 μl/well of potential ligands at indicated concentrations or coat buffer only for control and background measurement purposes, were coated overnight at 4° C. or coated for 1 h at room temperature, with motion, in 50 mM NaHCO3 pH 9.6 (coat buffer). In general, ligands were coated at 5 μg/ml, unless stated otherwise. For example, BiP binding peptides 6BB# and oxLDL were coated at 50 μg/ml. Native haemoglobin (Sigma-Aldrich, H7379), albumin, IgIV Gammagard and ovalbumin controls were prepared from lyophilized stocks. The controls were prepared by dissolving lyophilized proteins at 1 mg/ml in PBS upon resuspending by pipetting, followed by a 30 minutes period at the roller device, at room temperature. The protein solutions were centrifuged for 10 minutes at 16,000*g and diluted in coat buffer. […] After 5 washes with wash buffer followed by two washes with PBS, binding of antibodies was assessed. […] Plates were read at 450 nm. Triplicates were averaged and standard deviations calculated. […] Subsequently, sub-optimal concentrations of chaperones for binding to misfolded protein ligands are determined, and these concentrations are used for inhibition studies. […]
# T1 sequence (P11021 19-654): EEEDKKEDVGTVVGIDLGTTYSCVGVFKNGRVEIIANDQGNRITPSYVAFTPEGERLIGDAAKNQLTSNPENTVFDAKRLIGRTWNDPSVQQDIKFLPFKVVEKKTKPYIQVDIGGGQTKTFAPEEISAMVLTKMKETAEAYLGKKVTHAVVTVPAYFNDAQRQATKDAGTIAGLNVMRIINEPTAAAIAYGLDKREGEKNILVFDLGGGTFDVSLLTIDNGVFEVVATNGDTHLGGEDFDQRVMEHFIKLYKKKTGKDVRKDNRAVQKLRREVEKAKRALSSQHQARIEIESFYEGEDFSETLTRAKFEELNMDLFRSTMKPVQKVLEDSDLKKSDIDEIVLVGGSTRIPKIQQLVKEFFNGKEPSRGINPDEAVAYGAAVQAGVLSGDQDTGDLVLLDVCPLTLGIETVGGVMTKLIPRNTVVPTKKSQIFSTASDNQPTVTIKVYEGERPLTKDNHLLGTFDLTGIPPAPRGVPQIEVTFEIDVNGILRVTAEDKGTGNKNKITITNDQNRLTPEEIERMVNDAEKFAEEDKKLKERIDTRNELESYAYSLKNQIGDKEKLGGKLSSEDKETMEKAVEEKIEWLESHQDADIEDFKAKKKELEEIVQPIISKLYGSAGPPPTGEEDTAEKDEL
molecule,measurement,value
B1,Binding of concentration series of BiP to coated ligand,has been established
